The source of these data is US20220011297A1, “METHOD FOR PREDICTING EFFECT OF IMMUNE CHECKPOINT INHIBITOR” (NAGASAKI UNIVERSITY, priority 2018, published 2022).

For the series, the system named is lung cancer patients. The experiment in a line: Multicenter study of nivolumab in lung cancer patients: adverse events (interstitial pneumonia).

Description: Multicenter study ([sequence] University Hospital, Nagasaki Genbaku Hospital) [Subjects] Lung cancer patients [Selection criteria]
Employed were patients who had been histologically confirmed to have lung cancer through computed tomography (any T, any N, and M1, stage IV), and
who were 20 to 75 years old with performance status (PS) of 0 and retaining the functions of main tissues, met the study criteria of our institution, and voluntarily submitted a consent form to participate in the study after receiving explanation on the characteristics of the study.
This blood collection is performed concomitantly with regular blood collection during hospitalization, and no additional puncture is performed for the blood collection.

As to “nivolumab: human-type anti-PD-1 monoclonal antibody”, the “interstitial pneumonia with DAD (diffuse alveolar damage), acute exacerbation” value (13 lung cancer patients given nivolumab, other two cases OP) is “TR01 and TR02 were presenting with DAD”. Besides, the death entry (among DAD cases, in spite of discontinuation of administration) was “one case resulted in death”.
